The target of this test is the receptor on THP-1 cells. Put plainly: cell-based or functional assay.

The values below come from patent US20160326230A1, “HUMAN RELAXIN ANALOGUE, PHARMACEUTICAL COMPOSITION OF SAME, AND PHARMACEUTICAL APPLICATION OF SAME” (SHANGHAI HENGRUI PHARMACEUTICAL CO., LTD., priority 2013, published 2016).

Positions of bridges follow the written chain, without caps; N, C: chain ends. Chains are numbered I, II in the order given. No end group written: not given here.

B1: recombinant human relaxin analog 800814 (ligand)
chain 1: DSWMEEVIKLCGRDLVRAQIAICGMSTWS
chain 2: DLYSALANKCCHVGCTKRSLARFC
modifications: disulfide I:23-II:24; also: two more disulfides among A10, A11, A15 and B11
With B1, the EC50 (ng/ml) of cAMP induced in THP-1 cells (cAMP ELISA) is 1.5 ng/mL.
